According to PMC4499151, “Identifying high-affinity aptamer ligands with defined cross-reactivity using high-throughput guided systematic evolution of ligands by exponential enrichment”:
Changes are numbered by the printed parent chain. Numbers in names are those of the source.

T1: human IL-10RA-Fc fusion (human, UniProt Q13651 22-235)
T1 sequence: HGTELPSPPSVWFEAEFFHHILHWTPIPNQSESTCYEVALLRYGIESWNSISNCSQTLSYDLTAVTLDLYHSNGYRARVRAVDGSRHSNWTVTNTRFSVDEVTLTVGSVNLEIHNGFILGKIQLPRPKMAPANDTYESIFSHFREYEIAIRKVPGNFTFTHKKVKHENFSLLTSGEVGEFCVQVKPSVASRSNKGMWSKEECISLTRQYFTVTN

B1: 411-J-A1G (ssRNA)
RNA: GGGAGAGAGGAAGAGGGAUGGGGGCCAUGACGAUGUCGUUACGUAGAUGCAGAGACUCCUAACGACGACUCGCUGAGAUCGAGA
B2: 411-J-C28T (ssRNA)
RNA: B1 RNA with G23A, C50U
B3: 411-J-G7T (ssRNA)
RNA: B1 RNA with G23A, G29U
B4: 411-J-G30T (ssRNA)
RNA: B1 RNA with G23A, G52U

Key:
[1] = test system: human IgG (human); test: filter binding; details: Double filter binding, 37 C, binding buffer not detailed, selection buffer 20 mM HEPES, 2 mM CaCl2, 0.1 mg/ml BSA, 100-150 mM NaCl, pH 7.5
[2] = biological target: T1, human IL-10RA-Fc fusion; test: filter binding; Double filter binding, 37 C, binding buffer not detailed; selection buffer 20 mM HEPES, 2 mM CaCl2, 0.1 mg/ml BSA, 100-150 mM NaCl, pH 7.5; details: protein: commercial; tags: Fc fusion; chain copies: 2; label: 5' 32P

Row | Molecule | Kd [1] [nM] | further results
1 | GGGAGAGAGGAAGAGGGAUGGGAAAGACCGUUUUUUAAAACGCUCAAUAUACACGACAUAAACGACGACUCGCUGAGAUCGAGA [446 (#3)] | > 500 | 
2 | GGGAGAGAGGAAGAGGGAUGGGAAUCGCUCAGCCGGUCCGGAACUGGCAAAGUCAGGUGCUCCGACGACUCGCUGAGAUCGAGA [405 (cluster E)] |  | Kd ([1]; column inferred from text): 120 nM
3 | GGGAGAGAGGAAGAGGGAUGGGAGCCAUGACGAUGUCGUUACGUAGAUGCAGAGACUCCUAACGACGACUCGCUGAGAUCGAGA [411-J] | > 500 | 
4 | GGGAGAGAGGAAGAGGGAUGGGCGUCUCGUCAAUGCCCUACGUUUGUCUGUGCGACGACUCGCUGAGAUCGAGA [RJB#13] | > 1000 | 
5 | GGGAGAGAGGAAGAGGGAUGGGUGCUCAAUUAAGAACCAUCGCUCUCCGGUGCGACGACUCGCUGAGAUCGAGA [RJB#25] | > 1000 | 
6 | GGGAGAGAGGAAGAGGGAUGGGUGCUCACAAACGUGAACCAUCGUCUUGUGCCGACGACUCGCUGAGAUCGAGA [RJB#23] | > 1000 | 
7 | GGGAGAGAGGAAGAGGGAUGGGUGCUCACAUACGUGAACCAUCGUCAAUGGCCGACGACUCGCUGAGAUCGAGA [RJB#10] | > 1000 | 
8 | GGGAGAGAGGAAGAGGGAUGGGUGCUCAUCUUGAACGCAUUGUUUCUCCGUGCGACGACUCGCUGAGAUCGAGA [RJB#31] | > 500 | 
9 | GGGAGAGAGGAAGAGGGAUGGGUGCUCCUACUGUGGAACCAUCGUUCUUGUGCGACGACUCGCUGAGAUCGAGA [RJB#17] | > 1000 | 
10 | GGGAGAGAGGAAGAGGGAUGGGUGCUCGUUUCGAACCAUCGUAACUCCUGUGCGACGACUCGCUGAGAUCGAGA [RJB#161] | > 1000 | 
11 | GGGAGAGAGGAAGAGGGAUGGGUGCUUCAUAGAAACGCGCGAUCUUCCUGUGCGACGACUCGCUGAGAUCGAGA [RJB#44] | > 1000 | 
12 | B1 |  | Kd [2]: 9 nM
13 | B2 |  | Kd [2]: 18 nM
14 | B3 |  | Kd [2]: 18 nM
15 | B4 |  | Kd [2]: 18 nM
